Here are results for 2 molecules from patent US10117953B2, “Antibody drug conjugates” (Novartis AG, priority 2013, dated 2018).

For one data set, the system named is Uke-1 cells. Nature of the data set: ADCC activity in vitro (Calcein release, NK3.3 effector cells). Type of data set: cell-based, human. To be noted: effector to target ratio 20 to 1. The protocol: In brief, Uke-1 cells were stained with Calcein acetoxy-methyl ester (Calcein-AM; Sigma-Aldrich catalog #17783-5MG, St. Louis, Mo.), washed twice, pipetted into a 96-well microtiterplate (96 well, U-bottomed, clear plastic; Corning Costar, catalog #650 160, Tewksbury, Mass.) at a concentration of 5000 cells per well and pre-incubated for 10 min with a serial dilution of the above mentioned antibodies and proteins (from 50,000 to 0.003 μg per ml) before adding the effector NK3.3 cells for 1 hour in an effector to target ratio of 20 to 1. In order to calculate the antibody specific lysis of the target cells, a parallel incubation of target cells only without antibody or effector cells served as a baseline and negative control, whereas the positive control or maximal lysis or hundred percent specific lysis was determined by lysis of target cells only with a 1% Triton-X 100 solution. […] Following a co-incubation of target and effector cells, the microtiterplate was centrifuged and an aliquot of the supernatant fluid was transferred to another microtiterplate (96 well, flat-bottomed, black with clear bottom; Corning Costar, catalog #3904, Tewksbury, Mass.) and the concentration of free Calcein in solution was determined with a fluorescence counter (Victor 3® multilabel counter, Perkin Elmer, Waltham, Mass.).

For data set [1], the target named is T1, cKIT extra-cellular domain (SEQ ID NO:160) (Homo sapiens, UniProt P10721).
T1 construct: LENGTH: 503 amino acids; made in house; host or cells: HEK293 derived cell lines (293FS), transient transfection
T1 sequence (P10721 with tags, fused parts or gaps isoform P10721-2): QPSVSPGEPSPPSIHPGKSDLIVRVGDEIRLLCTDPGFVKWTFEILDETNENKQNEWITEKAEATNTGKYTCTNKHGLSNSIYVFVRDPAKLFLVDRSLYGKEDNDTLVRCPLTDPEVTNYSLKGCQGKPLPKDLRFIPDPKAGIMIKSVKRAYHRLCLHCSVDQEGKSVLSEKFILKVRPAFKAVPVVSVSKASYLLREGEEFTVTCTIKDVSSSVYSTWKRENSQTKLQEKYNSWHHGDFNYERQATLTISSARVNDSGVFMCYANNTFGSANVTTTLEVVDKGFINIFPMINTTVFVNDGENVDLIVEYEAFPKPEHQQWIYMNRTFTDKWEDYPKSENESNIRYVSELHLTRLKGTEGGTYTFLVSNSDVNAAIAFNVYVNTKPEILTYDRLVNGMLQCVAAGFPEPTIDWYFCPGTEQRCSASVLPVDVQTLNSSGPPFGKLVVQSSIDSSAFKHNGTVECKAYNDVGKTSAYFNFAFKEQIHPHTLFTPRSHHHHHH
Nature of the data set: Epitope mapping by deuterium exchange mass spectrometry (HDx-MS). Type of data set: binding. To be noted: Region 1 residues 109-119, Region 2 residues 185-196. As to the method:
In these experiments, the deuterium uptake of cKIT extra-cellular domain (SEQ ID NO:160, see below) was measured in the absence and presence of a therapeutic mAb, 9P3. Regions in cKIT that show a decrease in deuterium uptake upon binding of the antibody are likely to be involved in the epitope; however, due to the nature of the measurement it is also possible to detect changes remote from the direct binding site (allosteric effects). Usually, the regions that have the greatest amount of protection are involved in direct binding although this may not always be the case. In order to delineate direct binding events from allosteric effects orthogonal measurements (e. g. X-ray crystallography, alanine mutagenesis) are necessary.
The cKIT epitope mapping experiments are performed on a Waters Synapt® G2 HDx-MS platform, which includes LEAP® robot system, nanoACQUITY® UPLC System, and Synapt® G2 mass spectrometer. In this method, triplicate control experiments are carried out as follows. 300 pmol (1.4 mg/ml) of cKIT antigen is diluted into 110 ul of 95% deuterated PBS buffer (pH 7.4) and incubates at room temperature on a bench rotator for 25 minutes (% D=85.5%). Deuterium exchange is quenched by 1:1 dilution with cold quench buffer (6M Urea and 1M TCEP pH=2.5) on ice for 5 min. […] The sample is analyzed using the same on-line pepsin digestion/LC-MS setup as the control experiment.

Data set [2] deals with GIST T1 subcutaneous tumor xenograft. Kind of data set: Efficacy of murine 9P3 ADCs, MCC-DM1 vs SPDB-DM4. Particulars: single i.v. dose 10 mg/kg, unconjugated antibody. It is filed as in vivo, mouse.

With MabCampath [reference compound], the ADCC entry with Uke-1 cells is given as “mediated ADCC killing of the target cells”.

B1: 9P3: hybridoma derived anti-cKIT antibody; VH SEQ ID NO.9, VL SEQ ID NO.18 (antibody, V domains shown)
VH: EVRLVESEGGLVQPRSSMKLSCTASGFTFSDYYMAWVRQVPEKGLEWVANINYDGSSTYYLDSLKSRFIISRDNAKNILYLQMSSLKSEDTATYYCARGDYYGTTYWYFDVWGTGTTVTVSS
VL: DIQMTQTTSSLSASLGDRVTISCRASQDISNYLNWYQQKPDGTVKLLIYYTSRLQSGVPSRFSGSGSGTDYSLTISNLEQEDIATYFCQQGKKLWSFGGGTKLEIKR
As for B1, the “epitope (regions protected from deuterium exchange)” value in data set [1] is on record as “discontinuous epitope that is remote from the SCF binding sites”. Further, in data set [2], the antitumor efficacy result is on record as “Neither the control non-specific IgG1 ADCs nor the unconjugated 9P3 were efficacious”.
